For the experiment, the target named is T1, GroEL homologue from secondary endosymbiotic bacteria of the whitefly Bemisia tabaci (endosymbiotic bacteria of Bemisia tabaci, UniProt C4K477 1-552).
T1 construct: Chaperonin expressed in planta and assayed in plant sap; also called whitefly GroEL; B. tabaci GroEL
Nature of the experiment: capture of sap of infected GroEL-transgenic N. benthamiana (7 dpi) in anti-GroEL coated tubes; RT-PCR and Western blot with virus-specific antibodies.

Experimental: Transgenic and non-transgenic N. benthamiana plants were mechanically inoculated with GVA and with TMV. Infection was assessed by RT-PCR and by Western blot analyses at 5-7 dpi (FIGS. 12A and 13A). The possible binding of GVA and TMV particles to GroEL in transgenic N. benthamiana plants was assessed as described above. Sap of infected transgenic plants at 7 dpi was incubated in PCR tubes coated with anti-GroEL antibody. Binding of GroEL-virus complexes to the coated tubes was assayed by RT-PCR and with virus-specific antibodies.

B1: Grapevine virus A (GVA) (other)
chain: MAHYAKRVEIRAIIEELVLAKAQPTDDASESGYDRNMYLNTLFGYIALVGTSKKAIHYGEVDIVGPKASKKTGIDPRGKMVVSELVGRMRTLSVAVSEGPVKGATLRQMCEPFAQNAYDFLVVMAEMGTYSQLATKMTRSGFKEPQVMFDFASGLDLKALTLQEATVIQAMHSRLFRTEGAKGVFNAQSSIGEQAVEI
notes: The partner in the assay is the whole filamentous virus particle in plant sap
B1: the binding result is on record as “no binding”.

Values taken from patent publication US20100115665A1 (published 2010).
